Data published in patent US20150368301.

Test system: Unphosphorylated Nox1 peptide (KLKTQKIYF, "LocKiT")

For PKC-βI (protein kinase C-βI), the “in vitro kinase assay, heat of phosphorylation measured by ITC; dot blot with p-STY antibody” value was “The slope of the reaction following the heat of dilution confirms that the Nox1 peptide is a substrate for PKC-βI”.
